Reference: patent US11702666B2, “Cell-based assay for determining activity in the retinoblastoma pathway” (Medical Diagnostic Laboratories, LLC, priority 2017, dated 2023)
Read-outs that look alike come from different tables or passages of the source.

Columns and labels:
Rb/E2F1-Dp-1 complex [1] = test: CDK6 mutant activity / drug resistance in NanoBiT assay, stable cell line #11; type: cell-based, human; conditions: CDK6 mutants
Method: A linear expression cassette of mutated CDK4 or CDK6 was generated by PCR mediated overlapping extension method. A pair of forward and reverse primers containing the targeted mutations was designed. The mutated codon was located in the middle of a primer flanked by 18-21 nucleotides on each side. Two PCRs (named as PCR #1 and PCR #2 in FIG. 1) were performed using UF-CMV forward and mutated reverse primers, or mutated forward and BGH-UR primers. The PCR products were cleaned up by ExoSAP-IT® (Affymetrix) to remove unconsumed dNTPs and primers. The treated PCR products were mixed together followed by dilution with water. A second round of PCR was performed using the diluted PCR mixture, and the UF and UR primers (FIG. 1). The amplified products were gel-purified. The DNA concentration was quantitated by the optical density at 260 nm using Nanodrop. The targeted mutations were incorporated in the CDK4 or CDK6 genes during the PCR mediated overlapping extension method. The introduced mutations were confirmed by the DNA sequencing.
To examine the ability of the assay to detect variants in CDK4 or CDK6 that affect function, kinase dead mutants and COSMIC (Catalogue Of Somatic Mutations in cancer) unknown mutants were created. For comparison, hyperactive CDK4 or CDK6 mutants known to be hyperactive due to less binding to natural inhibitor p16 were also created. The mutations in CDK4 or CDK6 were created by site-directed mutagenesis. WT or mutated CDK4 or CDK6 along with the CyclinD1 and SB-Rb were co-transfected, under similar conditions as previously indicated (see FIG. 9).
Computer modeling was used to reveal the drug-binding pocket and predict drug-resistant mutants. The mutations in CDK4 and CDK6 were created by site-directed mutagenesis. WT or mutated CDK4 or CDK6 along with the CyclinD1 and SB-Rb was co-transfected into #11 cell line, under the same conditions as previously indicated. […] Dose response curves are presented on FIG. 13A and FIG. 13B. Activity of other mutants was very similar to the WT or KD.
CDK4 and CDK6 mutants with known function and unknown function taken from the COSMIC database were analyzed in the present assay and are summarized in Table 7A and Table 7B. The mutants were classified according to their activity. Table 7A and Table 7B also show the number of counts per mutant in the COSMIC database, type of cancer, and luciferase activity compared to the WT (being 100%).

CDK6 = biological target: T1, CDK6 (Homo sapiens, UniProt Q00534, R31C); test: p16 activity assay with CDK6 (NanoBiT, cell line #11); type: cell-based; conditions: compared to WT CDK6
T1 construct: expressed in transfected cells; host or cells: HEK293 CDK4/CDK6 double-knockout cells stably expressing E2F1-Dp-1-LB (clone #11); early experiments in plain HEK293
Source text: (§1) We developed an assay that could measure the interaction between Rb, E2F1 and Dp-1. When the Rb and E2F1 proteins are in close proximity or in complex, a light signal is observed. For the purpose of the assay, split-luciferase complementation was used to measure the interaction between Rb and E2F1, which served as a surrogate measure of CDK4/6 activity and the ability of CDK4/6 to respond to the natural inhibitor p16. The NanoBiT assay system by Promega (Madison, Wis.; Dixon et al., 2015, ACS ChemBiol) was used in the split luciferase complementation design. FIG. 24 depicts a design of a signal system to measure p16 activity. Under basal conditions inside the cell, Rb is active and interacts with the E2F1/Dp-1 heterodimer. However, in the presence of the CDK4 or CDK6, Rb gets phosphorylated and released from the interacting complex. In the presence of the natural inhibitor p16, CDK4/6 is no longer available to phosphorylate Rb and thus promoting the Rb/E2F1-Dp-1 complex formation.
For the purpose of the current assay, the stable cell line #11 that we generated for the CDK activity assay was used and described above. HEK293 CDK DKO cells containing E2F1-Dp-1-LB was transiently transfected with CDK4/CDK6, CyclinD1, and SB-Rb. The transfected cells were then exposed to the natural inhibitor p16 (FIG. 25). […]

Rb/E2F1-Dp-1 complex [2] = conditions: CDK6 mutants, literature ref.; Hyper = hyperactive, KD = kinase dead; cited from earlier work
Rb/E2F1-Dp-1 complex [3] = test: CDK4 mutant activity / drug resistance in NanoBiT assay, stable cell line #11; type: cell-based, human; conditions: CDK4 mutants, compared to the WT (being 100%)
Outline: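 Wild-type or mutant CDK4/CDK6, made by overlap-extension PCR site-directed mutagenesis and sequence-confirmed, was co-transfected with CyclinD1 and SB-Rb into stable NanoBiT line #11. Loss of Rb phosphorylation raises luminescence; activity expressed as luciferase signal relative to WT (100%), with drug dose-response curves for predicted resistance mutants.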

CDK4 = biological target: T2, CDK4 (Homo sapiens, UniProt P11802, R24A); test: p16 activity assay with CDK4 (NanoBiT, cell line #11); type: cell-based; conditions: compared to WT CDK4
T2 construct: expressed in transfected cells; host or cells: HEK293 CDK4/CDK6 double-knockout cells stably expressing E2F1-Dp-1-LB (clone #11); early experiments in plain HEK293
Source text: as §1
For the purpose of the current assay, the stable cell line #11 that we generated for the CDK activity assay was used and described above. HEK293 CDK DKO cells containing E2F1-Dp-1-LB was transiently transfected with CDK4/CDK6, CyclinD1, and SB-Rb. The transfected cells were then exposed to the natural inhibitor p16 (FIG. 25). When CDK4 or CDK6 is present, a decrease in activity was observed as Rb gets phosphorylated resulting in no Rb/E2F1-Dp-1 interaction. […] The data presented was a sample experiment where each condition was performed in triplicate and represented mean+SD.
The conditions of the assay were optimized by using different p16 amounts and cell numbers (FIGS. 25A and 25B). Based on the data generated, it was decided that using 0.2×10^6 cells/ml and 10 ng of p16 would be preferable.
To examine the ability of the assay to detect variants in CDKN2A that affect function, known loss of function mutants and unknown COSMIC mutants were created. Wild-type or mutated CDKN2A were prepared in a manner similar to that previously indicated. […] Therefore the p16 activity assay is capable of determining the relative activity level of p16 mutants. The data provided is in Luminescence (RLU) of a single experiment with each condition performed in triplicate and represent average+SD. Summary Table 13 reports p16 mutants tested.
In addition to check functional state of p16 mutants, p16 activity assay can be used to look at p16 inhibition response of different CDK4 and CDK6 mutants. Different response of WT CDK4 and CDK6 and hyperactive mutants of CDK4 (R24A) and CDK6 (R31C) is shown on FIG. 28. […] The p16 activity assay is so sensitive and specific that hyperactive CDK4 and CDK6 mutants can show different response to mutant p16.

Rb/E2F1-Dp-1 complex [4] = conditions: CDK4 mutants, literature ref.; Hyper = hyperactive, KD = kinase dead; cited from earlier work

T1 sequence (Q00534 whole entry R31C): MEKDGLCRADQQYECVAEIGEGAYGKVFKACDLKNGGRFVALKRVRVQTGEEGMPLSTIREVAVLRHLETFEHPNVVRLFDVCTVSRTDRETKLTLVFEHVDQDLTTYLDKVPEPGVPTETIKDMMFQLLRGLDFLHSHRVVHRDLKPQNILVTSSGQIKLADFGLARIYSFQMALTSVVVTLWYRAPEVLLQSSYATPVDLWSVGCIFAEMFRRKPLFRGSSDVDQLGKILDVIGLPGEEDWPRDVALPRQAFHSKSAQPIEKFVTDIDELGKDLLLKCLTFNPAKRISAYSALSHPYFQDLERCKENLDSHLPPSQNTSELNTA

Molecule	Luc activity (/wt) (Rb/E2F1-Dp-1 complex [1]; compared to the WT (being 100%)) [%]	luciferase signal compared to WT CDK6 (in words) (Rb/E2F1-Dp-1 complex [1]; no drug)	p16 inhibition response of hyperactive CDK6 mutant (luminescence) (CDK6)	Reported activity (Rb/E2F1-Dp-1 complex [2])	Luc. activity (/wt) (Rb/E2F1-Dp-1 complex [3]) [%]	p16 inhibition response of hyperactive CDK4 mutant (luminescence) (CDK4)	Reported activity (Rb/E2F1-Dp-1 complex [4])
CDK6 R31C: CDK6 mutant, literature hyperactive	66	a little bit lower basal signal than WT	decreased level of luminescence	Hyper	–	–	–
CDK4 R24A: CDK4 mutant, literature hyperactive (protein) ATSRYEPVAEIGVGAYGTVYKAADPHSGHFVALKSVRVPNGGGGGGGLPISTVREVALLRRLEAFEHPNVVRLMDVCATSRTDREIKVTLVFEHVDQDLRTYLDKAPPPGLPAETIKDLMRQFLRGLDFLHANCIVHRDLKPENILVTSGGTVKLADFGLARIYSYQMALTPVVVTLWYRAPEVLLQSTYATPVDMWSVGCIFAEMFRRKPLFCGNSEADQLGKIFDLIGLPPEDDWPRDVSLPRGAFPPRGPRPVQSVVPEMEESGAQLLLEMLTFNPHKRISAFRALQHSYLHKDEGNPE	–	–	–	–	79	decreased level of luminescence	Hyper
